The source of these data is patent US10550165B2, “Peptide for inducing regeneration of tissue and use thereof” (STEMRIM INC., priority 2011, dated 2020).

Data set [1] deals with skin flap made on the back of a rat. The data set can be described thus: Skin flap (skin damage) model on the back of rats. The data set is classed as in vivo. The protocol:
Experimental animals used were SD rats (male, eight weeks old). After sufficiently deep anesthesia by isoflurane inhalation, a rectangular skin incision of 3 cm width×7 cm length was made on the back. The cephalic side was left uncut, and the skin was thoroughly detached from the subcutaneous tissues. The three incised sides were sutured to the surrounding skin using #4 silk suture, and protected with Tegaderm (3M) to prevent bacterial infection.
The full-length mouse HMGB1 (100 μg/administration/day) produced in HEK293 and chemically synthesized HMGB1 peptide (amino acids 1 to 44; 50 μg/administration/day) were diluted to 200 μl with phosphate buffer and administered to rats via the caudal vein. The first administration was performed 6 hours after the surgery, and then the agents were administered every 24 hours a total of five times. Phosphate-buffered physiological saline was administered as a negative control. Tegaderm was removed after one week, and the wound region was observed weekly to measure the areas of necrosis and ulceration.
Experimental animals used were 15 SD rats (male, eight weeks old) per group. After sufficient anesthesia by isoflurane inhalation, a rectangular skin incision of 3 cm width×7 cm length was made on the back. The cephalic side was left uncut, and the skin was thoroughly detached from the subcutaneous tissues. The incised three sides were sutured to the surrounding skin using #4 silk suture, and protected with Tegaderm (3M) to prevent bacterial infection.
Chemically synthesized HMGB1 peptide (amino acids 1-44; 50 μg/administration/day) or HMGB1 peptide (amino acids 17-25; 50 μg/administration/day) was diluted to 200 μl with phosphate buffer and administered to the rats with experimental wound. The first administration was performed 6 hours after the surgery, and then the agents were administered every 24 hours a total of five times. Phosphate-buffered physiological saline was administered as a negative control. Tegaderm was removed after one week, and the wound was observed two weeks after the wound production. Uncured areas (ulceration and necrosis) were measured.

Data set [2] deals with mouse bone marrow mesenchymal stem cell line (MSC-1 cells), PDGFRα-positive. The data set is described as follows: Migration assay (Boyden / 48-well chemotaxis chamber) on bone marrow mesenchymal stem cell line MSC-1. It counts as cell-based. The gist of the method: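 Mouse MSC-1 cells (3×10^6 cells/ml in D-MEM with 10% FBS) loaded in the upper wells of a 48-well Boyden chamber with 8 μm polycarbonate membrane; mouse HMGB1 peptides or HEK293-made HMGB1 in lower wells at 100 μg/ml, 5 μM or 10 μM; PBS as negative control. After 4 h at 37° C, migrated cells were Diff-Quik stained.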

For data set [3] the following is noted: Youn et al., J Immunol 2008; cited from earlier work.
For data set [4], the system named is skin flap made on the back of a rat. The data set is described as follows: Skin flap (skin damage) model on the back of rats. To be noted: six weeks after skin flap production; 50 μg/administration/day, five administrations, FIG. 26. It counts as in vivo.
The nature of data set [5]: Side effects after administration of recombinant HMGB1 (previous studies of the inventors). The data set is classed as in vivo. The settings on record: high concentration administered to mice or rats. An excerpt:
As described above, HMGB1 pharmaceuticals are revolutionary therapeutic agents that promote the recruitment of bone marrow mesenchymal stem cells into blood and accumulation of the cells to damaged tissues, thereby inducing tissue regeneration in the body. […] However, there are also reports that HMGB1 has an inflammatory effect. As described above, there are several findings on HMGB1; however, nothing is known about the effect of fragments of the HMGB1 protein on mesenchymal stem cells or what roles they play in tissue regeneration.

The subject of another data set is mesoangioblasts. The settings on record: Palumbo et al., J. Cell Biol. 2004; cited from earlier work.
Data set [6] relates to human-derived bone marrow mesenchymal stem cells (hMSC). The data set is described as follows: Migration assay on human-derived bone marrow mesenchymal stem cells. The data set is classed as cell-based. To be noted: human HMGB1 fragments produced in E. coli, 2 μM, FIG. 21B. From the text: Human HMGB1 fragments (2-215, 2-84, 2-44, 45-84, 85-169, 89-185, 89-195, and 89-205) were produced in E. coli and purified using appropriate columns in the same manner as described in Examples 14, 15, and 16 above. However, 89-215 was purified by the same method as used for 89-205 in Example 15.
Using human-derived bone marrow mesenchymal stem cells, each fragment was examined by the same migration assay performed on mouse-derived bone marrow mesenchymal stem cells (MSC-1) as described above. The fragments were used at a final concentration of 2 μM. The human-derived bone marrow mesenchymal stem cells used were hMSC (human Mesenchymal Stem Cell, Takara) at fourth passage. The growth medium used was a mesenchymal stem cell growth medium (MF medium, TOYOBO). The cells were cultured in an incubator under 5% CO2 at 37° C. The medium was changed with a fresh medium every two to four days. The cells were passaged when they reached 80% confluency.

The mark [7] stands for this setting: produced in E. coli, 2 μM, FIGS. 20B and 20C.
Where [8] appears, read: human HMGB1 fragments 89-215, 89-205, 89-195, 89-185 and their Q column fractions, E. coli, 2 μM, FIGS. 19B and 19D.

Turning to “1-215: whole mouse HMGB1 produced in HEK293, positive control [reference compound]”, the “area of wound section (necrosed section) in the skin flap” value in data set [1] (one to three weeks after the skin flap was made, versus negative control, FIG. 25) is listed as “effect of shrinking the wound section was confirmed”. Further, the “rats in which skin necrosis developed” value in data set [1] (one week after surgery, caudal vein, five administrations, full-length 100 μg, peptide 50 μg/administration/day, negative control four of five) is “three of five rats”. In addition, the “rats with severe skin contracture” value in data set [1] (seven weeks after surgery, same regimen, negative control four of five, FIG. 24) is reported as “three of five rats”. Moreover, the migration-promoting activity result in data set [2] (protein and peptides produced using HEK293 (mouse HMGB1), 50 μg/ml, 4 h, FIG. 2A) is reported as “showed migration-promoting activity”. Moreover, the LPS-binding activity result in data set [3] was “known to have the binding activity with lipopolysaccharide (LPS)”. “(17-25): synthetic peptide consisting of the amino acid sequence from positions 17 to 25 of HMGB1 (AFFVQTCRE; UniProt P09429 17-25, looked up, fragment)”: the “ratio of the uncured area relative to the area of the whole skin flap, average” value in data set [1] (two weeks after skin flap production, 50 μg/administration/day, five administrations, 15 SD rats per group, FIG. 26) turned out to be 9.1%; in data set [4] it was 3.5%. Further, the migration-promoting activity entry in data set [2] (synthetic peptides, 5 μM, FIGS. 8A and 8B) is listed as “weak activity”. As to “recombinant HMGB1 protein: recombinant HMGB1 protein administered to mice or rats in the inventors' previous studies”, the side effects entry in data set [5] was “no side effects were observed”.

B1: amino acids of positions 1 to 187: HMGB1 sequence of positions 1 to 187 resulting from cleavage at the C terminal end (Palumbo et al.) (protein, UniProt P09429 1-187, looked up, fragment)
chain: MGKGDPKKPRGKMSSYAFFVQTCREEHKKKHPDASVNFSEFSKKCSERWKTMSAKEKGKFEDMAKADKARYEREMKTYIPPKGETKKKFKDPNAPKRPPSAFFLFCSEYRPKIKGEHPGLSIGDVAKKLGEMWNNTAADDKQPYEKKAAKLKEKYEKDIAAYRAKGKPDAAKKGVVKAEKSKKKKEE
For B1, in the data set with mesoangioblasts, the cell migration-promoting activity entry was “retains the cell migration-promoting activity of HMGB1”.

B2: Human HMGB1 fragment (85-169): human HMGB1 fragment, positions 85 to 169, produced in E. coli (protein, UniProt P09429 85-169, looked up, fragment)
chain: TKKKFKDPNAPKRPPSAFFLFCSEYRPKIKGEHPGLSIGDVAKKLGEMWNNTAADDKQPYEKKAAKLKEKYEKDIAAYRAKGKPD
As to B2, in data set [6], the migration-promoting activity entry is on record as “greater than that of human HMGB1 fragment (2-215)”. Moreover, in data set [2] (produced in E. coli, 2 μM, FIG. 20A), the “migration-promoting activity compared with 2-215” value is “stronger migration-promoting activity on bone marrow mesenchymal stem cells than human HMGB1 fragment (2-215)”. In addition, in data set [2] (setting [7]), the “migration-promoting activity per equal mass (reference taken as 1)” value was found to be 3.6 times and the “migration-promoting activity per molar (reference taken as 1)” value stood at 1.59 times.

B3: 89-195: human HMGB1 fragment, positions 89 to 195, produced in E. coli (protein, UniProt P09429 89-195, looked up, fragment)
chain: FKDPNAPKRPPSAFFLFCSEYRPKIKGEHPGLSIGDVAKKLGEMWNNTAADDKQPYEKKAAKLKEKYEKDIAAYRAKGKPDAAKKGVVKAEKSKKKKEEEEDEEDEE
For B3, the migration-promoting activity result is “exhibited stronger activity” in data set [6]; “stronger activity than any fragments between positions 89 and 215” in data set [2] (setting [8]).

B4: amino acids 1 to 79: HMGB1 fragment of amino acids 1 to 79 (Youn et al.) (protein, UniProt P09429 1-79, looked up, fragment)
chain: MGKGDPKKPRGKMSSYAFFVQTCREEHKKKHPDASVNFSEFSKKCSERWKTMSAKEKGKFEDMAKADKARYEREMKTYI
Consider B4, for which the LPS-binding activity entry in data set [3] is “lack the LPS-binding activity”.

B5: amino acids of positions 1 to 89: HMGB1 sequence consisting of the amino acids of positions 1 to 89 (Palumbo et al.) (protein, UniProt P09429 1-89, looked up, fragment)
chain: MGKGDPKKPRGKMSSYAFFVQTCREEHKKKHPDASVNFSEFSKKCSERWKTMSAKEKGKFEDMAKADKARYEREMKTYIPPKGETKKKF
For B5, the cell migration-promoting activity result with mesoangioblasts is listed as “almost no activity”.

B6: 89-185: human HMGB1 fragment, positions 89 to 185, produced in E. coli (protein, UniProt P09429 89-185, looked up, fragment)
chain: FKDPNAPKRPPSAFFLFCSEYRPKIKGEHPGLSIGDVAKKLGEMWNNTAADDKQPYEKKAAKLKEKYEKDIAAYRAKGKPDAAKKGVVKAEKSKKKK
Turning to B6, the migration-promoting activity result is “exhibited stronger activity” in data set [6]; “stronger activity than any fragments between positions 89 and 215” in data set [2] (setting [8]).

B7: amino acids of positions 90 to 176: HMGB1 sequence consisting of the amino acids of positions 90 to 176 (Palumbo et al.) (protein, UniProt P09429 90-176, looked up, fragment)
chain: KDPNAPKRPPSAFFLFCSEYRPKIKGEHPGLSIGDVAKKLGEMWNNTAADDKQPYEKKAAKLKEKYEKDIAAYRAKGKPDAAKKGVV
Regarding B7, the cell migration-promoting activity result in the data set on mesoangioblasts is recorded as “almost no activity”.

B8: amino acids 88 to 162: HMGB1 fragment of amino acids 88 to 162 (Youn et al.) (protein, UniProt P09429 88-162, looked up, fragment)
chain: KFKDPNAPKRPPSAFFLFCSEYRPKIKGEHPGLSIGDVAKKLGEMWNNTAADDKQPYEKKAAKLKEKYEKDIAAY
As for B8, in data set [3], the LPS-binding activity result was “lack the LPS-binding activity”.

B9: amino acids of positions 1 to 176: HMGB1 sequence consisting of the amino acids of positions 1 to 176 (Palumbo et al.) (protein, UniProt P09429 1-176, looked up, fragment)
chain: MGKGDPKKPRGKMSSYAFFVQTCREEHKKKHPDASVNFSEFSKKCSERWKTMSAKEKGKFEDMAKADKARYEREMKTYIPPKGETKKKFKDPNAPKRPPSAFFLFCSEYRPKIKGEHPGLSIGDVAKKLGEMWNNTAADDKQPYEKKAAKLKEKYEKDIAAYRAKGKPDAAKKGVV
Consider B9, for which the cell migration-promoting activity result in the data set with mesoangioblasts is listed as “almost no activity”.
